Laboratory results from PMC7716884.

Biological target: insulin lispro
Assay: SEC-MALS

In the case of insulin lispro (ligand), the stoichiometry N is reported as 6.
